# In the DeepSol protein solubility set:
# Assay: soluble on expression in E. coli; label from the status in PepcDB or PDB records
row,Sequence,soluble on expression in E. coli
1,MRKMADPLVPKEALEWFKSKGIKPGFDYRDVWKEEQANAFTVAKMLNADLLVEVKQLVEDAIGQGQTFEQFRDILKPLLVKSGWWGVQTMQDPLTDETKLVQLGSEGRIKTIYKTNMRTARSAGQWERIQRTKRTMPYLLYQLGPSEQHRIEHLKWNNTLLPADDPWWDVHMTPNGWGCKCWIRQVSQYEADKLIAAGTVKTTVPASKNKQWVNRRTGEVEVLPEGIDPGWNYNPGKNREKMLAADLALKESRMRQTLANGS,soluble
2,MRKMMPMNPKQLKKLMKQLDMRQLEGVKEVIIKMEDREIIIKEPIVTVIKAMGEKMYQIAGGSEEEKAIINISEEDIKLVMEQAGVDYETAKKALEETGGDLAEAILRLTDSGVE,soluble
3,MRKQALHPRTAVINKAQKNQSKRARSDALLWLAANFPEAFDNSLRIRPLKIGIMSDILQHAEKAEQVGISKSKLREAVVLFTRRLDYLACLKAREVRIDLHGNPVAEVTEEEAEHASMKIKKRVEKSVKNARKQVNAKAANHSHVNSQPSAVSSVKPMNSFDSHPEPLLPIYPLRSSTYASQNVAMQSAKSPSVVVKHKAPKQYDPDAVARLKEKLGLSRKAEEKKETTE,not soluble
4,MRKRLSAPELRLSLTKGPGNDGASPTQSAPSSPDGSSDLEIDELETPSDSEQLDSGHEFEWEDELPRAEGLGTSETAERLGRGCMWDVTGEDGHHWRVFRMGPREQRVDMTVIEPYKKVLSHGGYHGDGLNAVILFASCYLPRSSIPNYTYVMEHLFRYMVGTLELLVAENYLLVHLSGGTSRAQVPPLSWIRQCYRTLDRRLRKNLRALVVVHATWYVKAFLALLRPFISSKFTRKIRFLDSLGELAQLISLDQVHIPEAVRQLDRDLHGSGGT,not soluble
5,MRLALADAGDTVEDANFVEAMADAGILRLYTWVEWVKEMLASCSSLRSGPADSFNDRVFASEMNAGIIKTDQNYEKMMFKEALKTGFFEFQAAKDKYRELATEGMHRELVFRFIEVQTILLTPFCPHLCEHIWTLLGKPDSIMHASWPVAGPVDESLIRSSQYLMEVAHDLRLRLKNYMMPAKGKKTDKQPAQRPSHCTIYVAKNYPAWQHITLTTLRSHFEANNGKLPDNKVIASELGSLPELKKYMKKVMPFVAMIKENMEKKGPRVLDLELEFDEQAVLMENIVYLTNSLELEHIDVKFASEAEDKVREECCPGKPLNVFRTEPGVPVSLINPQPSSGHFSTKIDIRQGDSCESIIRRLTKTDRGIKDLSKVKLMRFDDPLLGPRRVPVLGREHSEKTLISENAVFHVDLVSKKVHLTENGLRMDIGDTMVYLVH,not soluble
6,MRLDYWSDSSKPIQQQWRDYDEISDNFKKAVVAAEDGKFVHHHGFDWEGIQYALEKNEKSGEVVNGGSTISQQLAKNLFLYNQRSLIRKGQEAIATWMMERMWSKQRILEVYMNSVQFGDHLYGVEAASHYYFHRSAQNLTRDQAAFLAALLPNPKYYQENRNDPRFKFKKRFTLKYMRYSEIP,not soluble
7,MRLFAIVLLCLVLATCASHIPSARVTHPASAGLPGLQGFQLMPPEQAVDALPYRNRYPLINAELRQGLAAHGYHESATPQFRVYYWLALRDAPLEFRPDLPPTSGMGPYLAIHRLRDETGTLRVRLVDLEERVLWEGMVSTGLSPARANPEQLELAVGALLRQLPRAR,not soluble
8,MRLLYVIKKENPMDQMPNCPKCQSEYVYHDSINFVCPDCGNEWDNNEIQESDDDQLIVKDSNGNLLAEGDNVLLIKDLKLKGSSEVLKKGTKFKNIRLVNGDHNVDCGKIMLKSEFLKKALEHHHHHH,soluble
9,MRLTSKGRYAVTAMLDVALNSEAGPVPLADISERQGISLSYLEQLFSRLRKNGLVSSVRGPGGGYLLGKDASSIAVGEVISAVDESVDATRCQGKGGCQGGDKCLTHALWRDLSDRLTGFLNNLEHHHHHH,not soluble
10,MRLWRICFKDPEPFIELYFHKVFREDYTLLQYSETGEAVAHLQMLPYQLRIFGTSFSAGYISGACTHPDHRGKGIMRTMMAEALSAIYDRGDICSFLIPAETWLYDFYSRSGGYAPAFGRKQFLYRPNSIPQKFPSGYACTIGQGDYSFLSAEEHTDIRLAVQHTLGQWQTALKDFSLAGGNVAMLQDSAGKTVSQACFVPRENSLDIKLLVGDAEATFILVDHLLRSLDCDHASILAHSGSAPYGMLRILRPIPILEAFAQYHPAEGYSFAYSDPLFSQHNGTYHISKGRIVFSNNVQPENSLLPHHTPDSLVKDLFSPFPSALFLMLD,not soluble
11,MRMENQKDLQENYLKVLERVELGSRVSGTVVNIMKDYVLVDIGYKSEGFIKIEEFENVPQVGDRLEAIVVRIGGELGLILSVEKLNSLNFQDKVYEYIQNKKIIKGKVLVELPNGYKIQINENVSGFMPFYLSSKSKDEKLKRGSVVEFYILEASEADGLRLILDRRTLEKERDLAKRIELVSSYNEEDVVDGVVERITEYGAIVKIKNFVTGILHKRNIAFNQVENVEDFVRVGDKLKLKIIKINPQTGKMELSLKALKANPWDSVDVKYKIDSIVKGKVVKILPFGAVIELDSELSGFLHISNFSWIRVVKSPQELIKLGQIVEVKILEIDKENQKISLGIKQINENPWERLTEKYPIGRVVQGVVTNITKTGAFVNIEEGIDAYVSKFDISWLEEIDPEEYFKIGDLVNGKVLEVDKRKRNVRLGIKQLEESPWEDFSKSYKKGDTIEVEIVEKKSKGFQVRVYNKIMGFISKIQLGDTKESSLETFEKLNVGDKLKVVITSIDSKDKSVLLSYREYENQRSREEISSYLFKGNDEESYKPFENLLKRDELEHHHHHH,soluble
12,MRMRHKPWWDDFLAENADIAISNPADYKGKWNTVFGNDNPIHIEVGTGKGQFISGMAKQNPDINYIGIELFKSVIVTAVQKVKDSEAQNVKLLNIDADTLTDVFEPGEVKRVYLNFSDPWPKKRHEKRRLTYSHFLKKYEEVMGKGGSIHFKTDNRGLFEYSLKSFSEYGLLLTYVSLDLHNSNLEGNIMTEYEEKFSALGQPIYRAEVEWRT,soluble
13,MRPLTRLVPLALLLLAGCAGPLPQPDPQMAWVELRSAPANTLLAERLDGERLSDGRYFQVTPGRHVLEVRFQYELYGGSGGGGGGFGEPVQINCYQQVVYDGFEAGRRYRLEVRPQLRRALALLSDERGEVVARSNFQTSRCPPY,not soluble
14,MRPNLRFYVQTINDIVKTTEDIGEVMNPYYEEVRQAIDKNKVNDLTAERIAEIQAKFKEGTEKYELMLKKVGTLKPTPQVLGIHKKFQHAYTEYVAGCNEMILATDPETGIDADLFNASEEKQDQATDELTFAITRMSNILLKK,not soluble
15,MRQALPLVTRQGDRIAIVSGLRTPFARQATAFHGIPAVDLGKMVVGELLARSEIPADAIEQLVFGQVVQMPEAPNIAREIVLGTGMNVHTDAYSVSRACATSFQAVANVAESLMAGTIRAGIAGGADSSSVLPIGVSKALARVLVDVNKARTTRQRLTLFSRLRLRDLLPVPPAVAEYSTGLRMGDTAEQMAKTYGITREQQDALAHRSHQRAAQAWAEGKLAEEVMTTYVPPYKNPFAEDNNIRGASTLADYAKLRPAFDRKHGSVTAANSTPLTDGAAAVILMTESRAKELGLRPLGYLRTYAFTAIDVWQDMLLGPAWSTPLALERAGLTMADLTLFDMHEAFAAQTLANLQLLGSERFAREVLGCAQATGEVDDAKFNVLGGSIAYGHPFAATGARMITQTLHELRRRGGGFGLVTACAAGGLGAAMVLEAE,not soluble
16,MRQRFLPLLALLSLLLPLPAPAAPTVSTVADQTGIALTIYNRNLGLVKDRREIRLAPGNGELRFMDVAAQIIPTSVSIASLAGGELQVLEQNYEYDLLSPQKLMDKYVGKEVKLHQKNPYTEREEVVTATLLSNNGGPVYRIGDEITFGHPGRLIFPGVPDDLIARPTLVWLLEGAAVEKRTIEASYLTGGISWRADYVVTLSEKDDQANLAGWVTIDNRSGAAYRNATLKLVAGDVNRVQEQSTRFAKSVRAEAMAPAPQFQEEAFFEYHLYTLQRPSTIKENQTKQINLVTADAVPVKKEFLLKGESFYYQSPAGEVEKQKVGVFVEMENRKEHNLGMPLPKGIVRVYKRDAGGSLQFVGEDTIDHTPEKETVRVKLGDAFDVVGERKQTEWRKVASDTYESAFEIRLRNHKKEDITVKVVEPVPGDWQMLSSSHPHEKGDAFSAVFKVPVPKDGEATLVYRVRMRYLEHHHHHH,soluble
17,MRQSGSWMTIWDDRILEIIHEEGNGSPKELEDRDEIRISKSSVSRRLKKLADHDLLQPLANGVYVITEEGEAYLNGEYDAGKERYINRGNSTDEENGADAPDGPGINS,soluble
